These results are taken from paper PMC10284691 (2023).

The target in experiment [1] is T1, BPH14–LRR (purified from insect cells) (rice (Oryza sativa), line RI35 carrying …, biotin (NHS-biotin) in the BLI assays; RED-NHS 2nd Generation dye in the MST assays).
T1 chain: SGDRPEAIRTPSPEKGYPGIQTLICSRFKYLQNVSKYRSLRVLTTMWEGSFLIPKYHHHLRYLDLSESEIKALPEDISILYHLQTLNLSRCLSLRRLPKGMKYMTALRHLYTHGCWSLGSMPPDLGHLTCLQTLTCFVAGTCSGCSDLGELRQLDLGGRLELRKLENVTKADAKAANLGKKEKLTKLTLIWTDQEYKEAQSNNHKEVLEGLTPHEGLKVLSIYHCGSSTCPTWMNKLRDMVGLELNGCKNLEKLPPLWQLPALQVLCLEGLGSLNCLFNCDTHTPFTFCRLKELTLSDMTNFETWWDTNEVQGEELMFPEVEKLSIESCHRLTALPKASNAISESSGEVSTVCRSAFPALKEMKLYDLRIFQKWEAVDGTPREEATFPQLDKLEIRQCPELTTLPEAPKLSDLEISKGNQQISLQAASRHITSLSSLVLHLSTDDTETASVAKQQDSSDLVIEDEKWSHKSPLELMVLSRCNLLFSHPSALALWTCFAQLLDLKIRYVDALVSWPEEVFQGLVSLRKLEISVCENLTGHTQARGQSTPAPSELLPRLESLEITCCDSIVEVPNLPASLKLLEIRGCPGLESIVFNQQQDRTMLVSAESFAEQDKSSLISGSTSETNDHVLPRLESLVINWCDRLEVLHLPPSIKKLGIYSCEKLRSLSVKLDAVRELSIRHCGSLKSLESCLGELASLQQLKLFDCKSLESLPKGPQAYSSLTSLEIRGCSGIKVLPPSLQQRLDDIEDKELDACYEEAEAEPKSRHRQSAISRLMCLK
The experiment in a line: BLI. (In general: Biolayer interferometry detects binding as a change in optical thickness at a sensor tip.)

Experiment [2] has as its target T1, BPH14–LRR (purified from insect cells). The experiment in a line: MST.
Experiment [3] shares this target. Kind of experiment: BLI.
The target is the same in experiment [4]. The experiment in a line: MST; competition with BISP(26–124) prebound to LRR.

Like-named read-outs stand apart in the source and are kept apart here.

B1: BISP(26–124) (purified from insect cells) (domain or fragment)
chain: SAMRYASGFQNNERQSSEQESYSRSAQSSEKSSSGYQMGEMASAGVGMSSGYGGSGYSSGGGYQQGVGYSGCDSDYSSGGIGGIVNTATGLASSVTGMA
Molecule B1 came in with a koff in experiment [1] of 0.000719 s⁻¹. In experiment [2], this molecule showed a Kd of 0.0561 µM.

B2: BISP (purified from insect cells) (natural protein)
chain: SAMRYASGFQNNERQSSEQESYSRSAQSSEKSSSGYQMGEMASAGVGMSSGYGGSGYSSGGGYQQGVGYSGCDSDYSSGGIGGIVNTATGLASSVTGMAGGLGGGGGLADVGGVVNTVSGLADVGGLTNTVSGLADVGGVTNTVGGLVNGIAGGGAGGGLLGGVLGGGDGGCGGNCGGNCGGNCGGRGGGGGGLLGGILGGGSGGGRGARVSARVC
With B2, the koff in experiment [3] came to 0.000341 s⁻¹. Besides, the Kd in experiment [2] amounted to 0.00972 µM. Further, in experiment [4], the Ki turned out to be 0.098 µM.

By koff is commonly meant a measure of how fast the partners let go of each other. For orientation: Kd means a measure of binding affinity in units of concentration. Low readings indicate tighter binding, high ones weaker binding. One may read the Ki as a measure of affinity in units of concentration, obtained from inhibition or displacement. Lower therefore signals tighter binding.
